# From patent US20210087286A1 (Amgen, published 2021)
# Changes are numbered by the printed parent chain.
# B1: 2G10.347 (antibody, human IgG1, kappa, N297G, V domains shown)
# VH: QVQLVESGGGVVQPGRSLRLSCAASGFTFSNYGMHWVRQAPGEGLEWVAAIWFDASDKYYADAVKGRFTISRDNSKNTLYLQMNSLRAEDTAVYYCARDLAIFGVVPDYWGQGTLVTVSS
# VL: EIVMTQSPATLSVSPGERATLSCRASQSVSSNLAWYQQKPGQAPRLLIYGAATRATGIPARFSGSGSGTEFTLTISSLQSEDFAVYYCQQYNNWPLTFGGGTKVEIKR
# B2: 2G10.602 (antibody, human IgG1, kappa, N297G, V domains shown)
# VH: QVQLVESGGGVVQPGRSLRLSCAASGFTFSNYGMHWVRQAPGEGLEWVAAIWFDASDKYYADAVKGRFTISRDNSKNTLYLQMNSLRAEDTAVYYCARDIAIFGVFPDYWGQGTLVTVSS
# VL: B1 VL with S30F, S31E, N32H, G50E, F62V
# notes: also called SS-26227
# B3: 2G10.601 (antibody, human IgG1, kappa, N297G, V domains shown)
# VH: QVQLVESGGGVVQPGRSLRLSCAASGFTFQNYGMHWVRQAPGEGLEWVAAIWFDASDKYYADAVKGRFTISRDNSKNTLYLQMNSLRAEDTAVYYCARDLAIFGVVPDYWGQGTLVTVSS
# VL: B1 VL with S30F, N32H, G50E, F62V, N92Q
# notes: also called SS-26226
# B4: 2G10.609 (antibody, human IgG1, kappa, N297G, V domains shown)
# VH: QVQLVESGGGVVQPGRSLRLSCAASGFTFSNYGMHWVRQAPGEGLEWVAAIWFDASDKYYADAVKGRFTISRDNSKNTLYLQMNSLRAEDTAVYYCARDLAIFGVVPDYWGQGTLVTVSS
# VL: B1 VL with S30E, S31R, N32H, G50E, F62V, N92Q
# notes: also called SS-26234
# B5: 2G10.610 (antibody, human IgG1, kappa, N297G, V domains shown)
# VH: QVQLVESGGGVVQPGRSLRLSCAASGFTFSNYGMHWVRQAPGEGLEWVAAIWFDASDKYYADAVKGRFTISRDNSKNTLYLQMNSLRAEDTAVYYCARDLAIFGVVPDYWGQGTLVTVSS
# VL: B1 VL with S30F, S31T, N32H, G50E, F62V
# notes: also called SS-26235
# B6: 2G10.607 (antibody, human IgG1, kappa, N297G, V domains shown)
# VH: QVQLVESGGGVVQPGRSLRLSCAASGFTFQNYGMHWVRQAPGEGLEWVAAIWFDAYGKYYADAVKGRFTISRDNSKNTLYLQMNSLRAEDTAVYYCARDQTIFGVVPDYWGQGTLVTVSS
# VL: B1 VL with S30D, S31R, N32H, G50E, F62V, N93Q
# notes: also called SS-26232
# B7: 2G10.608 (antibody, human IgG1, kappa, N297G, V domains shown)
# VH: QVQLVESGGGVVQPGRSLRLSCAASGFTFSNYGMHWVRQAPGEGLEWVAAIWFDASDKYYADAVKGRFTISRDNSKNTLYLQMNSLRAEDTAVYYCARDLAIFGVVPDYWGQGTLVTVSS
# VL: B1 VL with S30F, N32H, G50E, F62V, N92Q, N93Q
# notes: also called SS-26233
# B8: 2G10.604 (antibody, human IgG1, kappa, N297G, V domains shown)
# VH: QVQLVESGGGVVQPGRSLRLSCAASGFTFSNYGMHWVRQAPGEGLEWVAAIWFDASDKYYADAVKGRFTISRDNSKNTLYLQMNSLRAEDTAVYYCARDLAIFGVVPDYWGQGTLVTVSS
# VL: B1 VL with S30N, S31R, N32H, G50E, F62V, N92Q
# notes: also called SS-26229
# B9: 2G10.605 (antibody, human IgG1, kappa, N297G, V domains shown)
# VH: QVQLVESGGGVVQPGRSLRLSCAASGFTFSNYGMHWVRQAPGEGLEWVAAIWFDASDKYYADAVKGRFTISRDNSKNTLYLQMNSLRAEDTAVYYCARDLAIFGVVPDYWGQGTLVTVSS
# VL: B1 VL with S30D, S31V, G50N, F62V, N92Q
# notes: also called SS-26230
# B10: 2G10.606 (antibody, human IgG1, kappa, N297G, V domains shown)
# VH: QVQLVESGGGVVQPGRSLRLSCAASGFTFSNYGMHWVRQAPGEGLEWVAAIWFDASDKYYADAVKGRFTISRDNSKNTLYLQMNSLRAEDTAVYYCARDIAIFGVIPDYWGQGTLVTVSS
# VL: B1 VL with S30L, S31T, N32H, G50E, F62V, N92Q
# notes: also called SS-26231
# B11: 2G10.348 (antibody, human IgG1, kappa, N297G, V domains shown)
# VH: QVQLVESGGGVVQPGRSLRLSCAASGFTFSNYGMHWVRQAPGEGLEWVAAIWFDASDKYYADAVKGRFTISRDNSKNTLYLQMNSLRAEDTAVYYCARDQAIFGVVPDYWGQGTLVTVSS
# VL: B1 VL
# B12: 2G10.603 (antibody, human IgG1, kappa, N297G, V domains shown)
# VH: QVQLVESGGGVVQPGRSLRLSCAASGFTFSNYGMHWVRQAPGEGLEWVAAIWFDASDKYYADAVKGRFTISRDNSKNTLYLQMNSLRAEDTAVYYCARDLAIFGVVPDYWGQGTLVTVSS
# VL: B1 VL with S30D, S31R, N32H, G50E, F62V, N92Q
# notes: also called SS-26228
# B13: iPS:529403 (antibody, human IgG1, kappa, N297G, V domains shown)
# VH: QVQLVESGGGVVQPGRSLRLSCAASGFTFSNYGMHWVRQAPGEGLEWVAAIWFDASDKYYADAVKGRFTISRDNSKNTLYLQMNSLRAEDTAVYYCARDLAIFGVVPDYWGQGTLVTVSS
# VL: EIVLTQSPATLSLSPGERATLSCRASQSVDLHLAWYQQKPGQAPRLLIYEAATRATGIPDRFSGSGSGTEFTLTISRLEPEDFAVYYCQQYQNWPLTFGGGTKVEIKR
# B14: iPS:529397 (antibody, human IgG1, kappa, N297G, V domains shown)
# VH: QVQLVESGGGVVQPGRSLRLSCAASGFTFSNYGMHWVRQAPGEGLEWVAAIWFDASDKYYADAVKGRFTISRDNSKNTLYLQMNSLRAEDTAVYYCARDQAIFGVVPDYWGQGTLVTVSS
# VL: B13 VL with D30S, L31S, H32N, E50G, Q92N
# B15: iPS:529399 (antibody, human IgG1, kappa, N297G, V domains shown)
# VH: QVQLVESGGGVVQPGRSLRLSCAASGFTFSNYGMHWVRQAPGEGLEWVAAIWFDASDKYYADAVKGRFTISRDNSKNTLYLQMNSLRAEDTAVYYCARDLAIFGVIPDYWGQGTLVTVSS
# VL: B13 VL with D30S, L31E
# B16: iPS:529405 (antibody, human IgG1, kappa, N297G, V domains shown)
# VH: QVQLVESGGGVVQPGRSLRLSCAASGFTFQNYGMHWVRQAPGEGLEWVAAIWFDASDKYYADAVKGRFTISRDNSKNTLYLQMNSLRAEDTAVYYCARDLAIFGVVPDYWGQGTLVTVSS
# VL: B13 VL with D30F, L31S
# B17: iPS:529400 (antibody, human IgG1, kappa, N297G, V domains shown)
# VH: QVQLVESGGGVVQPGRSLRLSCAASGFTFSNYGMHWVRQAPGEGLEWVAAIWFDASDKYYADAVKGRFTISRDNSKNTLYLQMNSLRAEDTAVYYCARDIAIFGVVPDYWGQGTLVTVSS
# VL: B13 VL with D30S, L31S, H32N, E50G, Q92N
# B18: iPS:529404 (antibody, human IgG1, kappa, N297G, V domains shown)
# VH: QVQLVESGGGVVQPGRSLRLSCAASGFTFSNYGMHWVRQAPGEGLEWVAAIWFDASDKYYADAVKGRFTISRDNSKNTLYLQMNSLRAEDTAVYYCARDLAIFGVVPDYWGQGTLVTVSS
# VL: B13 VL with D30N, H32N, E50Q, Q92N, N93Q
# Molecular target: T1, huGIPR ECD (human, UniProt P48546 21-129, limits assumed)
# T1 construct: Soluble analyte of the Biacore assay; also called human GIPR extracellular domain
# T1 sequence: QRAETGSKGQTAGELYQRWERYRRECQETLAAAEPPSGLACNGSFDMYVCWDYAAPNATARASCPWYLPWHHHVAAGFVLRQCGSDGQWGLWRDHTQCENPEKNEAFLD
# Experiment: SPR (Biacore T200), mAb captured via goat anti-huFc, 200 nM huGIPR ECD analyte
# Procedure: Immobilization of Goat-anti-huFc antibody to a S-CM5 sensor chip surface was performed according to manufacturer's instructions. The Biacore instrument running buffer is 0.005% P20/PBS 1×, pH7.4, no calcium chloride, no magnesium chloride. Briefly, carboxyl groups on the sensor chip surfaces were activated by injecting 60 μL of a mixture containing 0.2 M N-ethyl-N′-(dimethylaminopropyl) carbodiimide (EDC) and 0.05 M N-hydroxysuccinimide (NHS). Goat-anti-huFc antibody was diluted in 10 mM sodium acetate, pH 4.0 at 20 μg/ml and injected over the activated chip surface at 30 uL/min for 6 minutes. Excess reactive groups on the surfaces were deactivated by injecting 60 μL of 1 M ethanolamine. Final immobilized level was ˜8000 resonance units (RU).
# Binding assays were carried out on the immobilized goat anti-huFc antibody surface by Biacore T200. The experiment was performed at 25° C. The instrument running buffer was 0.005% P20/PBS. The goat anti-huFc capture antibody was covalently attached to the sensor chip surface via standard amine coupling to flow cells channel 1-4. The anti-huGIPR antibodies were diluted in sample buffer (0.1 mg/ml BSA, 0.005% P20, PBS) to ˜10 nM then captured to flow cells channel 2, 3, 4. Flow cell channel 1 was as a blank reference surface without injection of anti-huGIPR antibody. The captured antibody response range was ˜250 RU. Then 200 nM huGIPR ECD was injected over the goat anti-huFc antibody captured anti-huGIPR antibody surfaces at flow rate 50 ul/min for 3 minutes. After a 10 minutes dissociation, each surface was regenerated by injecting 10 mM Glycine, pH 1.5 for 30 seconds twice.
row,Binder,koff [s⁻¹]
1,B1,0.0001
2,B2,< 5e-05
3,B3,6e-05
4,B4,6e-05
5,B5,< 5e-05
6,B6,6e-05
7,B7,< 5e-05
8,B8,< 5e-05
9,B9,7e-05
10,B10,< 5e-05
11,B11,0.0006
12,B12,< 5e-05

# Molecular target: T2, murine GIPR (murine, UniProt Q0P543 19-460, limits assumed)
# T2 sequence: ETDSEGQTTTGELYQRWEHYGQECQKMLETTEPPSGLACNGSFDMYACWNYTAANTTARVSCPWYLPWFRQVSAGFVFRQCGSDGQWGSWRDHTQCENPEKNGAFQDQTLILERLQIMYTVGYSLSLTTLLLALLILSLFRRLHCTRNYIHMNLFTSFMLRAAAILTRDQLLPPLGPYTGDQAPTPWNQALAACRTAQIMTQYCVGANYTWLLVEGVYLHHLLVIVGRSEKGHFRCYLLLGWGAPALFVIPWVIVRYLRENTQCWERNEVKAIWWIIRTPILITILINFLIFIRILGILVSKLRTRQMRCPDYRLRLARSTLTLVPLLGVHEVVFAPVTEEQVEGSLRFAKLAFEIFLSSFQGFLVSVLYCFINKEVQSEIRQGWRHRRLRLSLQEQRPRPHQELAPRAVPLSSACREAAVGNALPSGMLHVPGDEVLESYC
# Experiment: cell-based or functional assay
row,Binder,murine cAMP [nM]
1,B13,12
2,B14,108
3,B15,12.9
4,B16,6.1
5,B17,79.5
6,B18,3.9
7,B11,14600

# Molecular target: T3, human GIPR (human, UniProt P48546 22-466)
# T3 sequence: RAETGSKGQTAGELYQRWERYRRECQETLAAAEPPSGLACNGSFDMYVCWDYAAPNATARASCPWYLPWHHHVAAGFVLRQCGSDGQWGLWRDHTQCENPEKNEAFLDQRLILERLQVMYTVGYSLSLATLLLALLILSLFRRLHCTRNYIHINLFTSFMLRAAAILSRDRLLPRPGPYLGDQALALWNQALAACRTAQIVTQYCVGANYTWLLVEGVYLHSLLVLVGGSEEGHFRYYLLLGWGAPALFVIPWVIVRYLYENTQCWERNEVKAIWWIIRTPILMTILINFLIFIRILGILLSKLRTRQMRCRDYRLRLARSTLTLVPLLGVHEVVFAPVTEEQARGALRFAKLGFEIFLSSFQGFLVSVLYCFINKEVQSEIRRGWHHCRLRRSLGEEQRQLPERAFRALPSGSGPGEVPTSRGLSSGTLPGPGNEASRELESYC
# Experiment: cell-based or functional assay
row,Binder,human cAMP IC50 [nM]
1,B13,33.9
2,B14,50
3,B15,39.3
4,B16,22.7
5,B17,36.6
6,B18,27.8
7,B11,53

# Molecular target: T3, human GIPR
# Experiment: cell-based or functional assay
# Remark: another data set of the same source
row,Binder,cAMP IC50 [nM]
1,B1,28.4
2,B2,16.8
3,B3,21.4
4,B4,26.9
5,B5,12.9
6,B6,19.4
7,B7,21.7
8,B8,27.1
9,B9,25.6
10,B10,20.4
11,B11,42.8
12,B12,30.5
